The assay has as its target rsGCaMP.LP294TR.ΔRSET (rsGCaMP1.1). As to the kind of experiment: crystal structure; crystals with domain-swapped dimers; for rsGCaMP1.1 the C2 space group, two molecules in the asymmetric unit; Ca2+-bound protein.

What is called stoichiometry N is the number of molecules, sites or subunits per partner or assembly.

For the substance rsGCaMP.LP294TR.ΔRSET (rsGCaMP1.1), the stoichiometry N worked out at 2.

The values above are taken from paper PMC9005348.
